Test results reported in patent US12351616B2, “Peptides and combination of peptides for use in immunotherapy against esophageal cancer and other cancers” (Immatics Biotechnologies GmbH, priority 2015, dated 2025).

Legend:
HLA-A*02:01 = HLA-A*02:01 (Homo sapiens, UniProt P04439, D140Y/D185E/D98H/E176V/E277Q/G131W/G231S/I119V/I121R/I166T/I218V/L300P/L318F/N151K/N90K/P208A/P217A/Q86G/Q94H/R138H/R169H/T345S); assay: MHC binding assay: UV-ligand exchange with β2m ELISA; details: peptide exchange yield, binding to HLA-A*02:01
Text: Candidate peptides for T cell based therapies according to the present invention were further tested for their MHC binding capacity (affinity). The individual peptide-MHC complexes were produced by UV-ligand exchange, where a UV-sensitive peptide is cleaved upon UV-irradiation, and exchanged with the peptide of interest as analyzed. Only peptide candidates that can effectively bind and stabilize the peptide-receptive MHC molecules prevent dissociation of the MHC complexes. To determine the yield of the exchange reaction, an ELISA was performed based on the detection of the light chain (β2m) of stabilized MHC complexes. The assay was performed as generally described in Rodenko et al. (Rodenko et al., 2006).
96 well MAXISorp plates (NUNC) were coated over night with 2 ug/ml streptavidin in PBS at room temperature, washed 4× and blocked for 1 h at 37° C. in 2% BSA containing blocking buffer. Refolded HLA-A*02:01/MLA-001 monomers served as standards, covering the range of 15-500 ng/ml. Peptide-MHC monomers of the UV-exchange reaction were diluted 100 fold in blocking buffer. Samples were incubated for 1 h at 37° C., washed four times, incubated with 2 ug/ml HRP conjugated anti-β2m for 1 h at 37° C., washed again and detected with TMB solution that is stopped with […]. Absorption was measured at 450 nm. Candidate peptides that show a high exchange yield (preferably higher than 50%, most preferred higher than 75%) are generally preferred for a generation and production of antibodies or fragments thereof, and/or T cell receptors or fragments thereof, as they show sufficient avidity to the MHC molecules and prevent dissociation of the MHC complexes.

CD8+ T cells = assay: In vitro T-cell priming assay with aAPCs loaded with peptide/MHC and anti-CD28, pMHC multimer readout; assay type: cell-based, human; details: for Wells positive [%]: Table 10B; for Donors: percentage of positive donors; for Donors / wells: Table 10A; for wells: percentage of positive wells
Text: In order to obtain information regarding the immunogenicity of the TUMAPs of the present invention, the inventors performed investigations using an in vitro T-cell priming assay based on repeated stimulations of CD8+ T cells with artificial antigen presenting cells (aAPCs) loaded with peptide/MHC complexes and anti-CD28 antibody.
In order to perform in vitro stimulations by artificial antigen presenting cells loaded with peptide-MHC complex (pMHC) and anti-CD28 antibody, the inventors first isolated CD8+ T cells from fresh HLA-A*02 leukapheresis products via positive selection using CD8 microbeads (Miltenyi Biotec, Bergisch-Gladbach, Germany) of healthy donors obtained from the University clinics Mannheim, Germany, after informed consent.
PBMCs and isolated CD8+ lymphocytes were incubated in T-cell medium (TCM) until use consisting of RPMI-Glutamax (Invitrogen, Karlsruhe, Germany) supplemented with 10% heat inactivated human AB serum (PAN-Biotech, Aidenbach, Germany), 100 U/ml Penicillin/100 μg/ml Streptomycin (Cambrex, Cologne, Germany), 1 mM sodium pyruvate (CC Pro, Oberdorla, Germany), 20 μg/ml Gentamycin (Cambrex). 2.5 ng/ml IL-7 (PromoCell, Heidelberg, Germany) and 10 U/ml IL-2 (Novartis Pharma, Nurnberg, Germany) were also added to the TCM at this step.
Generation of pMHC/anti-CD28 coated beads, T-cell stimulations and readout was performed in a highly defined in vitro system using four different pMHC molecules per stimulation condition and 8 different pMHC molecules per readout condition.
The purified co-stimulatory mouse IgG2a anti human CD28 Ab 9.3 (Jung et al., 1987) was chemically biotinylated using Sulfo-N-hydroxysuccinimidobiotin as recommended by the manufacturer (Perbio, Bonn, Germany). Beads used were 5.6 μm diameter streptavidin coated polystyrene particles (Bangs Laboratories, Illinois, USA).
800.000 beads/200 μl were coated in 96-well plates in the presence of 4×12.5 ng different biotin-pMHC, washed and 600 ng biotin anti-CD28 were added subsequently in a volume of 200 μl. Stimulations were initiated in 96-well plates by co-incubating 1×10^6 CD8+ T cells with 2×10^5 washed coated beads in 200 μl TCM supplemented with 5 ng/ml IL-12 (PromoCell) for 3 days at 37° C. Half of the medium was then exchanged by fresh TCM supplemented with 80 U/ml IL-2 and incubating was continued for 4 days at 37° C. This stimulation cycle was performed for a total of three times. For the pMHC multimer readout using 8 different pMHC molecules per condition, a two-dimensional combinatorial coding approach was used as previously described (Andersen et al., 2012) with minor modifications encompassing coupling to 5 different fluorochromes. Finally, multimeric analyses were performed by staining the cells with Live/dead near IR dye (Invitrogen, Karlsruhe, Germany), CD8-FITC antibody clone SK1 (BD, Heidelberg, Germany) and fluorescent pMHC multimers. For analysis, a BD LSRII SORP cytometer equipped with appropriate lasers and filters was used. Peptide specific cells were calculated as percentage of total CD8+ cells. Evaluation of multimeric analysis was done using the FlowJo software (Tree Star, Oregon, USA). In vitro priming of specific multimer+CD8+ lymphocytes was detected by comparing to negative control stimulations.

Peptide exchange (HLA-A*02:01)	Substance	also measured
+++ (≥50 = +++)	12 (GLASRILDA; listed as Homo sapiens) [compound 12]	Wells positive [%] (CD8+ T cells): + (<20% = +)
++ (≥20% = ++)	77 (VLVPYEPPQV; listed as Homo sapiens) [compound 77]	Wells positive [%] (CD8+ T cells): + (<20% = +)
++ (≥20% = ++)	39 (LVRDTQSGSL; listed as Homo sapiens) [compound 39]	–
+++ (≥50 = +++)	23 (KLSDSATYL; listed as Homo sapiens) [compound 23]	–
++ (≥20% = ++)	68 (PAVLQSSGLYSL; listed as Homo sapiens) [compound 68]	–
+++ (≥50 = +++)	25 (LLPPPPPPA; listed as Homo sapiens) [compound 25]	–
+++ (≥50 = +++)	27 (NLREGDQLL; listed as Homo sapiens) [compound 27]	–
++ (≥20% = ++)	51 (KLFGHLTSA; listed as Homo sapiens) [compound 51]	–
++ (≥20% = ++)	48 (SMHQMLDQTL; listed as Homo sapiens) [compound 48]	–
++ (≥20% = ++)	17 (MISRTPEV; listed as Homo sapiens) [compound 17]	–
+ (≥10% = +)	30 (SLNGNQVTV; listed as Homo sapiens) [compound 30]	–
+++ (≥50 = +++)	59 (SLLDTLREV; listed as Homo sapiens) [compound 59]	–
++++ (≥75% = ++++)	85 (NIIELVHQV; listed as Homo sapiens) [compound 85]	–
++ (≥20% = ++)	24 (LLFAGTMTV; listed as Homo sapiens) [compound 24]	–
+++ (≥50 = +++)	65 (YVVGGFLYQRL; listed as Homo sapiens) [compound 65]	–
++ (≥20% = ++)	60 (VVMEELLKV; listed as Homo sapiens) [compound 60]	–
+++ (≥50 = +++)	21 (IVREFLTAL; listed as Homo sapiens) [compound 21]	–

Second part, the substance before the results:

Substance	Peptide exchange (HLA-A*02:01)	also measured
5 (NLMASQPQL; listed as Homo sapiens) [compound 5]	+++ (≥50 = +++)	Wells positive [%] (CD8+ T cells): +++ (50%-69% = +++)
97 (ELDRTPPEV; listed as Homo sapiens) [compound 97]	–	Donors (CD8+ T cells): ++++ (>= 70% = ++++); wells (CD8+ T cells): ++ (20%-49% = ++)
19 (GLAPFLLNAV; listed as Homo sapiens) [compound 19]	+++ (≥50 = +++)	Wells positive [%] (CD8+ T cells): + (<20% = +)
37 (YTQPFSHYGQAL; listed as Homo sapiens) [compound 37]	+++ (≥50 = +++)	–
98 (VLFPNLKTV; listed as Homo sapiens) [compound 98]	–	Donors (CD8+ T cells): ++++ (>= 70% = ++++); wells (CD8+ T cells): + (<20% = +)
6 (LLSGDLIFL; listed as Homo sapiens) [compound 6]	+++ (≥50 = +++)	Wells positive [%] (CD8+ T cells): ++ (20%-49% = ++)
43 (KVVGKDYLL; listed as Homo sapiens) [compound 43]	+ (≥10% = +)	–
11 (ALWLPTDSATV; listed as Homo sapiens) [compound 11]	+++ (≥50 = +++)	–
58 (LILESIPVV; listed as Homo sapiens) [compound 58]	++ (≥20% = ++)	–
87 (FLDNGPKTI; listed as Homo sapiens) [compound 87]	+++ (≥50 = +++)	–
54 (YQDLLNVKM; listed as Homo sapiens) [compound 54]	+++ (≥50 = +++)	–
15 (LLANGVYAA; listed as Homo sapiens) [compound 15]	+ (≥10% = +)	–
71 (ASDPILYRPVAV; listed as Homo sapiens) [compound 71]	+++ (≥50 = +++)	–
45 (MLTELEKAL; listed as Homo sapiens) [compound 45]	++ (≥20% = ++)	–
26 (MLAEKLLQA; listed as Homo sapiens) [compound 26]	+ (≥10% = +)	–
31 (VLPKLYVKL; listed as Homo sapiens) [compound 31]	++ (≥20% = ++)	–
81 (AVLPHVDQV; listed as Homo sapiens) [compound 81]	+++ (≥50 = +++)	–
32 (YMLDIFHEV; listed as Homo sapiens) [compound 32]	++ (≥20% = ++)	–

Substance	Peptide exchange (HLA-A*02:01)	also measured
40 (GLAFSLYQA; listed as Homo sapiens) [compound 40]	++ (≥20% = ++)	–
90 (SIYEYYHAL; listed as Homo sapiens) [compound 90]	+++ (≥50 = +++)	–
95 (LIQDRVAEV; listed as Homo sapiens) [compound 95]	–	Donors (CD8+ T cells): ++ (20%-49% = ++); wells (CD8+ T cells): + (<20% = +)
55 (GAIDLLHNV; listed as Homo sapiens) [compound 55]	++ (≥20% = ++)	–
74 (ILASLATSV; listed as Homo sapiens) [compound 74]	+++ (≥50 = +++)	–
101 (AMTQLLAGV; listed as Homo sapiens) [compound 101]	–	Donors (CD8+ T cells): +++ (50%-69% = +++); wells (CD8+ T cells): ++ (20%-49% = ++)
94 (TLLQEQGTKTV; listed as Homo sapiens) [compound 94]	–	Donors (CD8+ T cells): ++ (20%-49% = ++); wells (CD8+ T cells): + (<20% = +)
78 (KVANIIAEV; listed as Homo sapiens) [compound 78]	++ (≥20% = ++)	–
76 (KVADYIPQL; listed as Homo sapiens) [compound 76]	+++ (≥50 = +++)	–
91 (KLIDDVHRL; listed as Homo sapiens) [compound 91]	++++ (≥75% = ++++)	–
7 (SIFEGLLSGV; listed as Homo sapiens) [compound 7]	++ (≥20% = ++)	–
52 (VAIGGVDGNVRL; listed as Homo sapiens) [compound 52]	++ (≥20% = ++)	–
44 (ATGNDRKEAAENSL; listed as Homo sapiens) [compound 44]	+++ (≥50 = +++)	–
62 (ALYEYQPLQI; listed as Homo sapiens) [compound 62]	++ (≥20% = ++)	–
84 (SLAESLDQA; listed as Homo sapiens) [compound 84]	+++ (≥50 = +++)	–
89 (SLADSLYNL; listed as Homo sapiens) [compound 89]	++ (≥20% = ++)	–
22 (KLNDTYVNV; listed as Homo sapiens) [compound 22]	+++ (≥50 = +++)	–
57 (GLAPNTPGKA; listed as Homo sapiens) [compound 57]	+++ (≥50 = +++)	–
